Data taken from patent US20230125550A1 (ARCELLX, published 2023).

The binders below were run against HER2 (Homo sapiens (Human), UniProt P04626 23-652) (assay: phage ELISA, A450 target/A450 IgG1-Fc).
Summary of the method: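 Phage rescued with VCSM13 helper phage from phagemid colonies picked from panning output were tested on plates coated with goat anti-human IgG1-Fc antibody that carried either recombinant human target or IgG1-Fc. Bound phage were detected with HRP-conjugated anti-M13 antibody at 450 nm. The ELISA ratio is target absorbance over IgG1-Fc absorbance, averaged across all screened wells holding the clone.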

Binder	ELISA_avg
SEQ ID NO 944 (designed binder) MGSWWEFNIRLHAIDYRLKALGGSEAELAAFEKEIAAFESELQAYKGKGNPEVELLREKAAQIRAQLQAYRHN	9.75 ratio
SEQ ID NO 945 (designed binder) MGSWWEFRVRLEAIDYRLKALGGSEAELAAFEKEIAAFESELQAYKGKGNPEVEYLRMKAATIRAILQAYRHN	6.82 ratio
SEQ ID NO 942 (designed binder) MGSWWEFQVRLAAIEYRLKALGGSEAELAAFEKEIAAFESELQAYKGKGNPEVENLRQLAAHIRSVLQAYRHN	6.33 ratio
SEQ ID NO 943 (designed binder) MGSWWEFQVRLSAIEYRLTALGGSEAELAAFEKEIAAFESELQAYKGKGNPEVEELRQKAARIRSLLQAYRHN	9.61 ratio

Second part, the binder after the results:

ELISA_avg	Binder
3.08 ratio	SEQ ID NO 950 (designed binder) MGSWWEFNMRLSAIKYRLYALGGSEAELAAFEKEIAAFESELQAYKGKGNPEVEILRRLAADIRERLQAYRHN
6.73 ratio	SEQ ID NO 949 (designed binder) MGSWWEFNVRLSAIRYRLLALGGSEAELAAFEKEIAAFESELQAYKGKGNPEVEDLRASAAQIRAMLQAYRHN
5.23 ratio	SEQ ID NO 948 (designed binder) MGSWWEFNVRLQAIKYRLSALGGSEAELAAFEKEIAAFESELQAYKGKGNPEVEDLRKTAAHIRWQLQAYRHN
5.35 ratio	SEQ ID NO 946 (designed binder) MGSWYEFDIRLEAIKYRLSALGGSEAELAAFEKEIAAFESELQAYKGKGNPEVEYLRKKAAVIRSMLQAYRHN
8.04 ratio	SEQ ID NO 947 (designed binder) MGSWWEFRIRLEAIWYRLHALGGSEAELAAFEKEIAAFESELQAYKGKGNPEVEDLRIFAANIRSKLQAYRHN
